T1: EsCas13d, nuclease-dead (Eubacterium siraeum, UniProt B0MS50, R295A;H300A;R849A;H854A)
T1 sequence: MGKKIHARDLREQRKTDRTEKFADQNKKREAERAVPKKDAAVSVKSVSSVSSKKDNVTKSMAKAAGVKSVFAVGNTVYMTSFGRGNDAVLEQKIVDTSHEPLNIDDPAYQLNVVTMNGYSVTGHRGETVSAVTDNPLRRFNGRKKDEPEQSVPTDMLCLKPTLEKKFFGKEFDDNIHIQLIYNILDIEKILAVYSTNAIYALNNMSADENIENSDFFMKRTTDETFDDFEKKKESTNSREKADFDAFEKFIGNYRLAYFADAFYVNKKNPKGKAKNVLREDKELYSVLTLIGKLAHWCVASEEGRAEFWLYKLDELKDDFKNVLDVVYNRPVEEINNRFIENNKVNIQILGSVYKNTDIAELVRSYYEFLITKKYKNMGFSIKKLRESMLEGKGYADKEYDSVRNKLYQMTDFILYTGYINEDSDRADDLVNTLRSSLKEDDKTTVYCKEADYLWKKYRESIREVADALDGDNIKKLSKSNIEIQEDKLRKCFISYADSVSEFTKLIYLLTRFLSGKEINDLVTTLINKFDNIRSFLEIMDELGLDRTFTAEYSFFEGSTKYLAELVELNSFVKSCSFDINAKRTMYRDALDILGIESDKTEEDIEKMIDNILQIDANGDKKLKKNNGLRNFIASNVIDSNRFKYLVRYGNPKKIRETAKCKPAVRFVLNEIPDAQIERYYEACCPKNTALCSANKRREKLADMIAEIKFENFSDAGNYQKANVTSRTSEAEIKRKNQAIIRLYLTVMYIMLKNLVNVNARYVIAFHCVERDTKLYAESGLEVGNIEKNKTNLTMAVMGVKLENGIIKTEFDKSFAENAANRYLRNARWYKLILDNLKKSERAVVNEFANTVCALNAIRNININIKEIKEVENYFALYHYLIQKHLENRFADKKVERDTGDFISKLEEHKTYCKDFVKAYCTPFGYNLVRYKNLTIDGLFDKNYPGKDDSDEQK


Target: T1, EsCas13d, nuclease-dead
Assay: crRNA (strand 1, pre-loaded); Mg2+; 40 mM Tris-HCl pH 7.5, 150 mM NaCl, 6 mM MgCl2, 1 mM DTT, 0.1% Tween-20, 0.2 mg/ml BSA; 25 C; 10 min per concentration, then washed
Settings: tags: His6-TwinStrep-SUMO cleaved; N-terminal SNAP kept (SNAP-Surface 488); label: 3' end held by stalled T7 RNA polymerase

Binder	Kd [nM]
target 1 C2A,C4G (mixed) RNA 1: CACCCGUGCAAAAAUGCAGGGGUCUAAAACUGAGCGGAUAACCUCUCUAUGG RNA 2: GGGAAUGGAUCCACAUCUACGAAUUCGUACCAUAGAGAGGUUAUCCGGUAACCGAGAUCGGAAGAGCACACGU	12 ± 0.6
target 1 insG 3' of 4,insU 3' of 1 (mixed) RNA 1: CACCCGUGCAAAAAUGCAGGGGUCUAAAACUGAGCGGAUAACCUCUCUAUGG RNA 2: GGGAAUGGAUCCACAUCUACGAAUUCGUACCAUAGAGAGGUUAUCCGCGUCAUCCGAGAUCGGAAGAGCACACGU	9.1 ± 0.4
target 2 MT 5'PFS GCG 3'PFS CAA (mixed) RNA 1: CACCCGUGCAAAAUUGCAGGGGUCUAAAACCUUCUCCAAAUUGUUUCAUCCU RNA 2: GGGAAUGGAUCCACAUCUACGAAUUCGCGAGGAUGAAACAAUUUGGAGAAGCAAAGAUCGGAAGAGCACACGU	9.7 ± 1.9
target 2 MT 5'PFS AGC 3'PFS AGU (mixed) RNA 1: CACCCGUGCAAAAUUGCAGGGGUCUAAAACCUUCUCCAAAUUGUUUCAUCCU RNA 2: GGGAAUGGAUCCACAUCUACGAAUUCAGCAGGAUGAAACAAUUUGGAGAAGAGUAGAUCGGAAGAGCACACGU	10.2 ± 1.6
target 2 MT 5'PFS CGG 3'PFS UAA (mixed) RNA 1: CACCCGUGCAAAAUUGCAGGGGUCUAAAACCUUCUCCAAAUUGUUUCAUCCU RNA 2: GGGAAUGGAUCCACAUCUACGAAUUCCGGAGGAUGAAACAAUUUGGAGAAGUAAAGAUCGGAAGAGCACACGU	4.4 ± 0.7
target 2 MT 5'PFS GAG 3'PFS UUG (mixed) RNA 1: CACCCGUGCAAAAUUGCAGGGGUCUAAAACCUUCUCCAAAUUGUUUCAUCCU RNA 2: GGGAAUGGAUCCACAUCUACGAAUUCGAGAGGAUGAAACAAUUUGGAGAAGUUGAGAUCGGAAGAGCACACGU	8.5 ± 1
target 2 MT 5'PFS GGG 3'PFS AAU (mixed) RNA 1: CACCCGUGCAAAAUUGCAGGGGUCUAAAACCUUCUCCAAAUUGUUUCAUCCU RNA 2: GGGAAUGGAUCCACAUCUACGAAUUCGGGAGGAUGAAACAAUUUGGAGAAGAAUAGAUCGGAAGAGCACACGU	6.2 ± 0.6
target 2 MT 5'PFS GCU 3'PFS AUA (mixed) RNA 1: CACCCGUGCAAAAUUGCAGGGGUCUAAAACCUUCUCCAAAUUGUUUCAUCCU RNA 2: GGGAAUGGAUCCACAUCUACGAAUUCGCUAGGAUGAAACAAUUUGGAGAAGAUAAGAUCGGAAGAGCACACGU	8.9 ± 1.1
target 2 MT 5'PFS GAG 3'PFS UAA (mixed) RNA 1: CACCCGUGCAAAAUUGCAGGGGUCUAAAACCUUCUCCAAAUUGUUUCAUCCU RNA 2: GGGAAUGGAUCCACAUCUACGAAUUCGAGAGGAUGAAACAAUUUGGAGAAGUAAAGAUCGGAAGAGCACACGU	5.1 ± 0.7
target 2 MT 5'PFS GGG 3'PFS AAC (mixed) RNA 1: CACCCGUGCAAAAUUGCAGGGGUCUAAAACCUUCUCCAAAUUGUUUCAUCCU RNA 2: GGGAAUGGAUCCACAUCUACGAAUUCGGGAGGAUGAAACAAUUUGGAGAAGAACAGAUCGGAAGAGCACACGU	8.7 ± 1
target 2 MT 5'PFS AGC 3'PFS UAA (mixed) RNA 1: CACCCGUGCAAAAUUGCAGGGGUCUAAAACCUUCUCCAAAUUGUUUCAUCCU RNA 2: GGGAAUGGAUCCACAUCUACGAAUUCAGCAGGAUGAAACAAUUUGGAGAAGUAAAGAUCGGAAGAGCACACGU	8.7 ± 1.7
target 2 MT 5'PFS CUC 3'PFS UAG (mixed) RNA 1: CACCCGUGCAAAAUUGCAGGGGUCUAAAACCUUCUCCAAAUUGUUUCAUCCU RNA 2: GGGAAUGGAUCCACAUCUACGAAUUCCUCAGGAUGAAACAAUUUGGAGAAGUAGAGAUCGGAAGAGCACACGU	3.4 ± 0.6
target 2 MT 5'PFS GAG 3'PFS UAC (mixed) RNA 1: CACCCGUGCAAAAUUGCAGGGGUCUAAAACCUUCUCCAAAUUGUUUCAUCCU RNA 2: GGGAAUGGAUCCACAUCUACGAAUUCGAGAGGAUGAAACAAUUUGGAGAAGUACAGAUCGGAAGAGCACACGU	10.6 ± 1.7
target 2 MT 5'PFS GCU 3'PFS AUC (mixed) RNA 1: CACCCGUGCAAAAUUGCAGGGGUCUAAAACCUUCUCCAAAUUGUUUCAUCCU RNA 2: GGGAAUGGAUCCACAUCUACGAAUUCGCUAGGAUGAAACAAUUUGGAGAAGAUCAGAUCGGAAGAGCACACGU	14.5 ± 2.8
target 2 MT 5'PFS GCG 3'PFS CAG (mixed) RNA 1: CACCCGUGCAAAAUUGCAGGGGUCUAAAACCUUCUCCAAAUUGUUUCAUCCU RNA 2: GGGAAUGGAUCCACAUCUACGAAUUCGCGAGGAUGAAACAAUUUGGAGAAGCAGAGAUCGGAAGAGCACACGU	9.4 ± 0.9
target 2 MT 5'PFS GCU 3'PFS AUG (mixed) RNA 1: CACCCGUGCAAAAUUGCAGGGGUCUAAAACCUUCUCCAAAUUGUUUCAUCCU RNA 2: GGGAAUGGAUCCACAUCUACGAAUUCGCUAGGAUGAAACAAUUUGGAGAAGAUGAGAUCGGAAGAGCACACGU	22 ± 6
target 2 MT 5'PFS GAG 3'PFS UUA (mixed) RNA 1: CACCCGUGCAAAAUUGCAGGGGUCUAAAACCUUCUCCAAAUUGUUUCAUCCU RNA 2: GGGAAUGGAUCCACAUCUACGAAUUCGAGAGGAUGAAACAAUUUGGAGAAGUUAAGAUCGGAAGAGCACACGU	14.2 ± 2.2
target 2 MT 5'PFS GGG 3'PFS AAA (mixed) RNA 1: CACCCGUGCAAAAUUGCAGGGGUCUAAAACCUUCUCCAAAUUGUUUCAUCCU RNA 2: GGGAAUGGAUCCACAUCUACGAAUUCGGGAGGAUGAAACAAUUUGGAGAAGAAAAGAUCGGAAGAGCACACGU	6.7 ± 0.9
target 2 MT 5'PFS GCU 3'PFS AUU (mixed) RNA 1: CACCCGUGCAAAAUUGCAGGGGUCUAAAACCUUCUCCAAAUUGUUUCAUCCU RNA 2: GGGAAUGGAUCCACAUCUACGAAUUCGCUAGGAUGAAACAAUUUGGAGAAGAUUAGAUCGGAAGAGCACACGU	15 ± 4
target 2 MT 5'PFS GGG 3'PFS AAG (mixed) RNA 1: CACCCGUGCAAAAUUGCAGGGGUCUAAAACCUUCUCCAAAUUGUUUCAUCCU RNA 2: GGGAAUGGAUCCACAUCUACGAAUUCGGGAGGAUGAAACAAUUUGGAGAAGAAGAGAUCGGAAGAGCACACGU	8.9 ± 1
target 2 MT 5'PFS CGG 3'PFS UAU (mixed) RNA 1: CACCCGUGCAAAAUUGCAGGGGUCUAAAACCUUCUCCAAAUUGUUUCAUCCU RNA 2: GGGAAUGGAUCCACAUCUACGAAUUCCGGAGGAUGAAACAAUUUGGAGAAGUAUAGAUCGGAAGAGCACACGU	5 ± 0.8
target 2 MT 5'PFS CGG 3'PFS UAC (mixed) RNA 1: CACCCGUGCAAAAUUGCAGGGGUCUAAAACCUUCUCCAAAUUGUUUCAUCCU RNA 2: GGGAAUGGAUCCACAUCUACGAAUUCCGGAGGAUGAAACAAUUUGGAGAAGUACAGAUCGGAAGAGCACACGU	5.3 ± 0.6
target 2 MT 5'PFS AGC 3'PFS UAC (mixed) RNA 1: CACCCGUGCAAAAUUGCAGGGGUCUAAAACCUUCUCCAAAUUGUUUCAUCCU RNA 2: GGGAAUGGAUCCACAUCUACGAAUUCAGCAGGAUGAAACAAUUUGGAGAAGUACAGAUCGGAAGAGCACACGU	10.5 ± 2.3
target 2 MT 5'PFS GUU 3'PFS AGU (mixed) RNA 1: CACCCGUGCAAAAUUGCAGGGGUCUAAAACCUUCUCCAAAUUGUUUCAUCCU RNA 2: GGGAAUGGAUCCACAUCUACGAAUUCGUUAGGAUGAAACAAUUUGGAGAAGAGUAGAUCGGAAGAGCACACGU	9.9 ± 0.8
target 2 MT 5'PFS CUC 3'PFS UAA (mixed) RNA 1: CACCCGUGCAAAAUUGCAGGGGUCUAAAACCUUCUCCAAAUUGUUUCAUCCU RNA 2: GGGAAUGGAUCCACAUCUACGAAUUCCUCAGGAUGAAACAAUUUGGAGAAGUAAAGAUCGGAAGAGCACACGU	2.05 ± 0.35
target 2 MT 5'PFS CUC 3'PFS UAU (mixed) RNA 1: CACCCGUGCAAAAUUGCAGGGGUCUAAAACCUUCUCCAAAUUGUUUCAUCCU RNA 2: GGGAAUGGAUCCACAUCUACGAAUUCCUCAGGAUGAAACAAUUUGGAGAAGUAUAGAUCGGAAGAGCACACGU	1.99 ± 0.13
target 2 MT 5'PFS CUC 3'PFS UAC (mixed) RNA 1: CACCCGUGCAAAAUUGCAGGGGUCUAAAACCUUCUCCAAAUUGUUUCAUCCU RNA 2: GGGAAUGGAUCCACAUCUACGAAUUCCUCAGGAUGAAACAAUUUGGAGAAGUACAGAUCGGAAGAGCACACGU	2.32 ± 0.23
target 2 MT 5'PFS AGC 3'PFS UAU (mixed) RNA 1: CACCCGUGCAAAAUUGCAGGGGUCUAAAACCUUCUCCAAAUUGUUUCAUCCU RNA 2: GGGAAUGGAUCCACAUCUACGAAUUCAGCAGGAUGAAACAAUUUGGAGAAGUAUAGAUCGGAAGAGCACACGU	8.9 ± 1.3

From paper PMC10786891, “Massively parallel profiling of RNA-targeting CRISPR-Cas13d”
